Measurements from publication PMC4887207, “Viral hijacking of a replicative helicase loader and its implications for helicase loading control and phage replication” (eLife, 2016).

What was measured:
[1] = molecular target: SeMet-SaDnaI^AAA+ (Staphylococcus aureus) (UniProt Q3ZUA6); assay: crystal structure; ADP•BeF3-bound SaDnaI^AAA+•77ORF104 complex, SeMet SAD, 1.9 Å; complex formed with two-fold excess of 77ORF104
[2] = molecular target: SaDnaI^AAA+ (residues 136-306) (Staphylococcus aureus) (UniProt Q3ZUA6); assay: fluorescence polarisation; anisotropy-based competition; 20 nM labeled 77ORF104 and 2 µM SaDnaI^AAA+, unlabeled 77ORF104 or mutant titrated; 50 mM HEPES-KOH pH 7.5, 125 mM KCl, 10% glycerol, 5 mM MgCl2, 1 mM DTT; apparent
[3] = molecular target: SaDnaI^AAA+ (residues 136-306) (UniProt Q3ZUA6); assay: competition-based fluorescence anisotropy assay; conditions: read at the highest unlabeled competitor concentration (last point, just beyond the 10 µM tick); the competitor displaces N-terminally labeled wild-type …; parent: est. 20; read off a plot
[4] = molecular target: N-terminally labeled, wild-type 77ORF104 (Staphylococcus bacteriophage 77); assay: fluorescence polarisation; fluorescence anisotropy; 20 nM N-terminally AlexaFluor 488-labeled 77ORF104, unlabeled protein titrated in 2-fold steps; 50 mM HEPES-KOH pH 7.5, 125 mM KCl, 10% glycerol, 5 mM MgCl2, 1 mM DTT; single-site fit; apparent
[5] = molecular target: the molecule itself; assay: SEC; analytical gel filtration, 5/150 GL Superdex 200; 20 mM Tris-HCl pH 8.0, 200 mM NaCl, 5% glycerol, 5 mM MgCl2, 1 mM BME, 10 mM ATP; 7 µM SaDnaC, 14 µM SaDnaI, 14 µM 77ORF013, 30 µM 77ORF104; peak fractions on SDS-PAGE
[6] = molecular target: the molecule itself; assay: centrifugal pelleting assay; 90 µM SaDnaI with or without 180 µM 77ORF104, 20 min on ice, 14,000 x g 1 min; 20 mM HEPES-KOH pH 7.5, 100 mM NaCl, 10% glycerol, 5 mM MgCl2, 6 mM ATP; SDS-PAGE of pellet and supernatant

Molecule: phage 77 ORF104 protein
- stoichiometry N [1]: 1

Molecule: phage 77 ORF104 protein (natural protein)
- Ki [2]: 1.62 µM

Molecule: phage 77 ORF104 protein K39E
- response [3]: 26 mA

Molecule: phage 77 ORF104 protein Y17E
- response [3]: 57 mA

B1: SaDnaI^AAA+ (residues 136-306) (domain or fragment)
chain: DRLDVAMAADDICTAITNGEQVKGLYLYGPFGTGKSFILGAIANQLKSKKVRSTIIYLPEFIRTLKGGFKDGSFEKKLHRVREANILMLDDIGAEEVTPWVRDEVIGPLLHYRMVHELPTFFSSNFDYSELEHHLAMTRDGEEKTKAARIIERVKSLSTPYFLSGENFRNN
- Kd [4]: 0.049 µM

B2: SaDnaC replicative helicase (natural protein, Staphylococcus aureus, UniProt Q9AQH7 1-466, looked up)
chain: MDRMYEQNQMPHNNEAEQSVLGSIIIDPELINTTQEVLLPESFYRGAHQHIFRAMMHLNEDNKEIDVVTLMDQLSTEGTLNEAGGPQYLAELSTNVPTTRNVQYYTDIVSKHALKRRLIQTADSIANDGYNDELELDAILSDAERRILELSSSRESDGFKDIRDVLGQVYETAEELDQNSGQTPGIPTGYRDLDQMTAGFNRNDLIILAARPSVGKTAFALNIAQKVATHEDMYTVGIFSLEMGADQLATRMICSSGNVDSNRLRTGTMTEEDWSRFTIAVGKLSRTKIFIDDTPGIRINDLRSKCRRLKQEHGLDMIVIDYLQLIQGSGSRASDNRQQEVSEISRTLKALARELKCPVIALSQLSRGVEQRQDKRPMMSDIRESGSIEQDADIVAFLYRDDYYNRGGDEDDDDDGGFEPQTNDENGEIEIIIAKQRNGPTGTVKLHFMKQYNKFTDIDYAHADMM
notes: Staphylococcus aureus replicative helicase DnaC (a DnaB-family helicase); also called S. aureus DnaC replicative helicase; host helicase; not shown: His6, N-terminal, cleaved; MBP, N-terminal, cleaved
- stoichiometry N [5]: 2

B3: full-length Staphylococcus aureus DnaI (natural protein, UniProt Q3ZUA6 1-306, looked up)
chain: MKQFKSIINTSQDFEKRIEKIKKEVINDPDVKQFLEAHRAELTNAMIDEDLNVLQEYKDQQKHYDGHKFADCPNFVKGHVPELYVDNNRIKIRYLQCPCKIKYDEERFEAELITSHHMQRDTLNAKLKDIYMNHRDRLDVAMAADDICTAITNGEQVKGLYLYGPFGTGKSFILGAIANQLKSKKVRSTIIYLPEFIRTLKGGFKDGSFEKKLHRVREANILMLDDIGAEEVTPWVRDEVIGPLLHYRMVHELPTFFSSNFDYSELEHHLAMTRDGEEKTKAARIIERVKSLSTPYFLSGENFRNN
notes: Staphylococcus aureus helicase loader DnaI, residues 1-306 by the limits of the domain constructs; Residues 136-306 are in PDB 5HE8 and 5HE9; also called SaDnaI; FL SaDnaI; not shown: His6, N-terminal, cleaved; MBP, N-terminal, cleaved
- binding result [6]: binds
